Assay results taken from patent US20240218011A1 (FIREFLY BIO, published 2024).

Biological target: human LPAM1 (human, UniProt P26010 20-798)
Experiment: cell-based or functional assay

Chain of human LPAM1 (P26010 20-798): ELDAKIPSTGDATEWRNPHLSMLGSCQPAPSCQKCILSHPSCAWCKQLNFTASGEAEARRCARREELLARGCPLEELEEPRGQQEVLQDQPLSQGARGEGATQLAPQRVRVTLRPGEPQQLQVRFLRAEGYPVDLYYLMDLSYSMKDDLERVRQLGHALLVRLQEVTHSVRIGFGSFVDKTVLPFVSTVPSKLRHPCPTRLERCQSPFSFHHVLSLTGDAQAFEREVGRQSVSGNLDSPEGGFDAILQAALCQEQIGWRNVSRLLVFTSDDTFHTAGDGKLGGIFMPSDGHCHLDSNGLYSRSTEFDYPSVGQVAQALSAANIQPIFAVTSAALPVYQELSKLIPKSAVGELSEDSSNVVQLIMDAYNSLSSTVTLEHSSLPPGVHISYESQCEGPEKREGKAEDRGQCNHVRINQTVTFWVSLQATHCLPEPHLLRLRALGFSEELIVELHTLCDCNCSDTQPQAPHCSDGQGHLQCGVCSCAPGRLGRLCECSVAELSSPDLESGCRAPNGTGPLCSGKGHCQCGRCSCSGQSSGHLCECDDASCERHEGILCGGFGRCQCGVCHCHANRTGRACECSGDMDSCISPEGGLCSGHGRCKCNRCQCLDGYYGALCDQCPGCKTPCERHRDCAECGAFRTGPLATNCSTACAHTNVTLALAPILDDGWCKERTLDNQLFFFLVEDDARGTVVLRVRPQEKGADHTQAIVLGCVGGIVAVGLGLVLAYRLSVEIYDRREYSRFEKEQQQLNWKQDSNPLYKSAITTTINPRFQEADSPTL

B1: Anti-LPAM-1-Linker 1-Bud (vedolizumab conjugated to GR agonist budesonide with Linker 1) (antibody, human IgG1, kappa, V domains shown)
VH: QVQLVQSGAEVKKPGASVKVSCKGSGYTFTSYWMHWVRQAPGQRLEWIGEIDPSESNTNYNQKFKGRVTLTVDISASTAYMELSSLRSEDTAVYYCARGGYDGWDYAIDYWGQGTLVTVSS
VL: DVVMTQSPLSLPVTPGEPASISCRSSQSLAKSYGNTYLSWYLQKPGQSPQLLIYGISNRFSGVPDRFSGSGSGTDFTLKISRVEAEDVGVYYCLQGTHQPYTFGQGTKVEIKR
modifications: budesonide attached through Linker 1; residues and chain not stated
Fold induction Anti-LPAM1 conjugate at 0.0064 nM; luciferase reporter: 1 fold
Fold induction Anti-LPAM1 conjugate at 0.032 nM; luciferase reporter: 1 fold
Fold induction Anti-LPAM1 conjugate at 0.16 nM; luciferase reporter: 20 fold
Fold induction Anti-LPAM1 conjugate at 0.8 nM; luciferase reporter: 121 fold
Fold induction Anti-LPAM1 conjugate at 4 nM; luciferase reporter: 147 fold
Fold induction Anti-LPAM1 conjugate at 20 nM; luciferase reporter: 177 fold
Fold induction Anti-LPAM1 conjugate at 100 nM; luciferase reporter: 240 fold
Fold induction Anti-LPAM1 conjugate at 500 nM; luciferase reporter: 361 fold
